Results on one substance are retold here after PMC4552671.

The test deals with Urokinase plasminogen activator surface receptor (uPAR) on metastatic KHOS osteosarcoma cells (human (endogenous in KHOS)) (UniProt Q03405).
Chain of UniProt Q03405 (Q03405 other isoform, or with tags, fused parts or gaps): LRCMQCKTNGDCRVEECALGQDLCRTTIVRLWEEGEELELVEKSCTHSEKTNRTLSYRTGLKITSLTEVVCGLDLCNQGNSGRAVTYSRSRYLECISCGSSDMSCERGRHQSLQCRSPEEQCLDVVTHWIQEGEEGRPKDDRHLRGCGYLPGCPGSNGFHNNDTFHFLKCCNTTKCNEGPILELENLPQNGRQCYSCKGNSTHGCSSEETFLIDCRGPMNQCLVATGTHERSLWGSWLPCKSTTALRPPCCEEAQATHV

Take “recombinant human urokinase plasminogen activator (rh-uPA), high molecular weight form”: the increase in migration of metastatic KHOS cells over basal level (Transwell, 24 h) with 0.5 and 1.0 ug/mL rh-uPA stood at 166%.
